Laboratory results from the array DNA melting data of Ke et al..

Assay: melting temperature; melt of duplexes
Conditions: sodium 0.0675 M; strand 1 µM

Substance	Tm [°C]
CGACGTGCTCGATGTGCTG+CAGCACATTATGCACGTCG ((((((((...((((((((+))))))))...))))))))	49.6
CGACGTGCGACATGTGCTG+CAGCACATAGGGCACGTCG ((((((((...((((((((+))))))))...))))))))	50
CGACGTGCCGCATGTGCTG+CAGCACATCGAGCACGTCG ((((((((...((((((((+))))))))...))))))))	54.5
CGACGTGCATCATGTGCTG+CAGCACATGCTGCACGTCG (((((((((.(((((((((+))))))))).)))))))))	55.8
CGACGTGCACAATGTGCTG+CAGCACATGGAGCACGTCG ((((((((.(.((((((((+)))))))).).))))))))	52.5
CGACGTGCCTCATGTGCTG+CAGCACATATAGCACGTCG ((((((((...((((((((+))))))))...))))))))	48.8
CGACGTGCCCGATGTGCTG+CAGCACATGTCGCACGTCG ((((((((...((((((((+))))))))...))))))))	48.4
CGACGTGCCATATGTGCTG+CAGCACATCGTGCACGTCG ((((((((...((((((((+))))))))...))))))))	44.2
CGACGTGCTTTATGTGCTG+CAGCACATGCAGCACGTCG (((((((((..((((((((+))))))))..)))))))))	50.9
CGACGTGCCGAATGTGCTG+CAGCACATGTGGCACGTCG (((((((((..((((((((+))))))))..)))))))))	57.2
CGACGTGCCGCATGTGCTG+CAGCACATTATGCACGTCG ((((((((...((((((((+))))))))...))))))))	46.4
CGACGTGCGGTATGTGCTG+CAGCACATTATGCACGTCG ((((((((...((((((((+))))))))...))))))))	51.3
CGACGTGCTTTATGTGCTG+CAGCACATCGTGCACGTCG ((((((((...((((((((+))))))))...))))))))	42.3
CGACGTGCGGGATGTGCTG+CAGCACATCAAGCACGTCG ((((((((..(((((((((+)))))))))..))))))))	57.6
CGACGTGCCATATGTGCTG+CAGCACATTATGCACGTCG ((((((((...((((((((+))))))))...))))))))	50.3
CGACGTGCGTCATGTGCTG+CAGCACATGACGCACGTCG (((((((((((((((((((+)))))))))))))))))))	66.4
CGACGTGCCCAATGTGCTG+CAGCACATGGAGCACGTCG ((((((((.(.((((((((+)))))))).).))))))))	55.5
CGACGTGCTTAATGTGCTG+CAGCACATTGGGCACGTCG ((((((((..(((((((((+)))))))))..))))))))	53.5
CGACGTGCGCAATGTGCTG+CAGCACATGGAGCACGTCG ((((((((.(.((((((((+)))))))).).))))))))	60.2
CGACGTGCGAGATGTGCTG+CAGCACATCTAGCACGTCG ((((((((.((((((((((+)))))))))).))))))))	59.7
CGACGTGCCAGATGTGCTG+CAGCACATAACGCACGTCG ((((((((...((((((((+))))))))...))))))))	48.6
CGACGTGCGTGATGTGCTG+CAGCACATCGGGCACGTCG ((((((((..(((((((((+)))))))))..))))))))	57.5
CGACGTGCGTCATGTGCTG+CAGCACATGGAGCACGTCG ((((((((..(((((((((+)))))))))..))))))))	58.4
CGACGTGCGCTATGTGCTG+CAGCACATACGGCACGTCG ((((((((..(((((((((+)))))))))..))))))))	50.6

Substance	Tm [°C]
CGACGTGCAGAATGTGCTG+CAGCACATTTGGCACGTCG ((((((((..(((((((((+)))))))))..))))))))	54.3
CGACGTGCGCAATGTGCTG+CAGCACATTTCGCACGTCG (((((((((.(((((((((+))))))))).)))))))))	57.5
CGACGTGCCCAATGTGCTG+CAGCACATGTCGCACGTCG ((((((((...((((((((+))))))))...))))))))	49.5
CGACGTGCAATATGTGCTG+CAGCACATCACGCACGTCG ((((((((...((((((((+))))))))...))))))))	46.8
CGACGTGCGGGATGTGCTG+CAGCACATCTCGCACGTCG (((((((((.(((((((((+))))))))).)))))))))	62.3
CGACGTGCAGCATGTGCTG+CAGCACATCCCGCACGTCG ((((((((.(.((((((((+)))))))).).))))))))	46.3
CGACGTGCAGAATGTGCTG+CAGCACATGGCGCACGTCG ((((((((...((((((((+))))))))...))))))))	55.9
CGACGTGCGTGATGTGCTG+CAGCACATTTGGCACGTCG ((((((((...((((((((+))))))))...))))))))	50.4
CGACGTGCAAGATGTGCTG+CAGCACATGAAGCACGTCG ((((((((...((((((((+))))))))...))))))))	52.2
CGACGTGCTGCATGTGCTG+CAGCACATTGGGCACGTCG ((((((((...((((((((+))))))))...))))))))	50.1
CGACGTGCGAAATGTGCTG+CAGCACATGCCGCACGTCG (((((((((..((((((((+))))))))..)))))))))	56
CGACGTGCTTGATGTGCTG+CAGCACATCCTGCACGTCG ((((((((..(((((((((+)))))))))..))))))))	54.5
CGACGTGCTCTATGTGCTG+CAGCACATCGTGCACGTCG ((((((((.(.((((((((+)))))))).).))))))))	45.2
CGACGTGCCGCATGTGCTG+CAGCACATTGTGCACGTCG ((((((((...((((((((+))))))))...))))))))	45.7
CGACGTGCAGAATGTGCTG+CAGCACATATCGCACGTCG ((((((((...((((((((+))))))))...))))))))	50.9
CGACGTGCAACATGTGCTG+CAGCACATTGGGCACGTCG ((((((((...((((((((+))))))))...))))))))	50.1
CGACGTGCCTCATGTGCTG+CAGCACATGAAGCACGTCG ((((((((.((((((((((+)))))))))).))))))))	56.3
CGACGTGCTCGATGTGCTG+CAGCACATGGGGCACGTCG ((((((((.(.((((((((+)))))))).).))))))))	54.5
CGACGTGCACAATGTGCTG+CAGCACATAACGCACGTCG ((((((((...((((((((+))))))))...))))))))	45.3
CGACGTGCTACATGTGCTG+CAGCACATACGGCACGTCG ((((((((...((((((((+))))))))...))))))))	48.8
CGACGTGCTTAATGTGCTG+CAGCACATAGTGCACGTCG ((((((((...((((((((+))))))))...))))))))	44
CGACGTGCGGCATGTGCTG+CAGCACATCTGGCACGTCG ((((((((...((((((((+))))))))...))))))))	51.1
CGACGTGCCGGATGTGCTG+CAGCACATCATGCACGTCG ((((((((..(((((((((+)))))))))..))))))))	54.8
CGACGTGCAATATGTGCTG+CAGCACATCTAGCACGTCG ((((((((.(.((((((((+)))))))).).))))))))	49.2

Substance	Tm [°C]
CGACGTGCTGAATGTGCTG+CAGCACATAGAGCACGTCG (((((((((..((((((((+))))))))..)))))))))	52.2
CGACGTGCATGATGTGCTG+CAGCACATGGCGCACGTCG ((((((((...((((((((+))))))))...))))))))	48.1
CGACGTGCAGAATGTGCTG+CAGCACATCTCGCACGTCG ((((((((...((((((((+))))))))...))))))))	51.6
CGACGTGCAATATGTGCTG+CAGCACATGGCGCACGTCG ((((((((...((((((((+))))))))...))))))))	50.5
CGACGTGCGGCATGTGCTG+CAGCACATCATGCACGTCG ((((((((...((((((((+))))))))...))))))))	51.2
CGACGTGCTACATGTGCTG+CAGCACATCCGGCACGTCG ((((((((...((((((((+))))))))...))))))))	48.7
CGACGTGCGTAATGTGCTG+CAGCACATGAGGCACGTCG ((((((((.(.((((((((+)))))))).).))))))))	53.6
CGACGTGCTGTATGTGCTG+CAGCACATCGTGCACGTCG ((((((((...((((((((+))))))))...))))))))	46.4
CGACGTGCCGTATGTGCTG+CAGCACATGCCGCACGTCG ((((((((.(.((((((((+)))))))).).))))))))	51.6
CGACGTGCAGCATGTGCTG+CAGCACATAGGGCACGTCG ((((((((...((((((((+))))))))...))))))))	46.4
CGACGTGCGGTATGTGCTG+CAGCACATGCGGCACGTCG ((((((((.(.((((((((+)))))))).).))))))))	55.1
CGACGTGCGCGATGTGCTG+CAGCACATCCAGCACGTCG ((((((((..(((((((((+)))))))))..))))))))	55.6
CGACGTGCACTATGTGCTG+CAGCACATAGGGCACGTCG ((((((((.((((((((((+)))))))))).))))))))	58.9
CGACGTGCACAATGTGCTG+CAGCACATTGGGCACGTCG ((((((((.((((((((((+)))))))))).))))))))	61.2
CGACGTGCGCAATGTGCTG+CAGCACATGTCGCACGTCG (((((((((..((((((((+))))))))..)))))))))	56.1
CGACGTGCCTAATGTGCTG+CAGCACATAAAGCACGTCG ((((((((.(.((((((((+)))))))).).))))))))	50.3
CGACGTGCGAGATGTGCTG+CAGCACATGCAGCACGTCG ((((((((...((((((((+))))))))...))))))))	53.7
CGACGTGCTTTATGTGCTG+CAGCACATGGTGCACGTCG ((((((((...((((((((+))))))))...))))))))	45.6
CGACGTGCTAGATGTGCTG+CAGCACATTTTGCACGTCG ((((((((.(.((((((((+)))))))).).))))))))	52
CGACGTGCTATATGTGCTG+CAGCACATCTCGCACGTCG ((((((((.(.((((((((+)))))))).).))))))))	48.3
CGACGTGCGTCATGTGCTG+CAGCACATTCGGCACGTCG ((((((((...((((((((+))))))))...))))))))	48.7
CGACGTGCATGATGTGCTG+CAGCACATCCGGCACGTCG ((((((((..(((((((((+)))))))))..))))))))	54.4
CGACGTGCGGCATGTGCTG+CAGCACATCCTGCACGTCG ((((((((.(.((((((((+)))))))).).))))))))	53.4
CGACGTGCAGCATGTGCTG+CAGCACATGTAGCACGTCG ((((((((..(((((((((+)))))))))..))))))))	54.4
